Source: US20110212110A1 (INNATE PHARMA, published 2011)

Tests used:
[1] = target: T1, recombinant human His-tagged TLR3 extracellular domain protein (R&D systems, #1487-TR-050) (human, UniProt O15455 24-704); assay: ELISA, His-tagged TLR3 or TLR4 on Ni-NTA plates, hybridoma supernatant, goat anti-mouse F(ab) IgG-HRP
T1 construct: Bought protein; also called recombinant human TLR3; rec TLR3; not shown: His tag
Excerpt: Immune spleen cells were fused with X63.Ag8.653 immortalized B cells, and cultured in the presence of irradiated spleen cells. 40 culture plates were obtained and evaluated in a first screen for TLR3 binding using an ELISA developed for detection of binding to TLR3. Briefly, His-tagged recombinant TLR3 protein (R&D systems, #1487-TR-050) was coated on Ni-NTA 96-wells plates (Qiagen). […] Positive supernatants were selected and tested for lack of binding to TLR4. Briefly, His-tagged rec TLR4 protein (R&D systems, #3146-TR-050) were coated on Ni-NTA 96-wells plates (Qiagen). […] TLR4 was chosen as a 2nd screen in order to discriminate among wells selected in the 1st screen, where anti-His specific antibody from TLR3 specific antibody were used.
Cloning of hybridomas of potential interest. 42 potentially interesting hybridomas selected from the initial screening were cloned by limiting dilution techniques in 96-wells plates, and 304 subclones were tested in a series of screens as follows. […] All supernatants yielding a ratio above 10 for DO obtained in TLR3 ELISA to DO obtained in TLR4 ELISA were selected as specific for TLR3. Among them was supernatant from well F9 of plate 40 (40F9).

[2] = target: T2, human TLR4 expressed in 293T cells (293T-TLR4 transfectants) (human, UniProt O00206 24-839); assay: IHC on paraffin-embedded cell pellet, ENVISION amplification
T2 construct: also called Toll-Like Receptor 4
Experimental: 40F9.6 was tested on tonsil tissue with different detection systems, in order to identify the detection system yielding the strongest signal, with the lowest […]. The ENVISION System commercialized by DAKO A/S (Glostrup, Denmark) was selected. ENVISION is an amplification system based on an HRP-labeled polymer conjugated to secondary antibodies. Tissue sections were dewaxed and rehydrated before the antigen unmasking procedure in boiled citrate buffer (pH6). Endogenous peroxydases were blocked by a 3% solution of H₂O₂.
40F9.6 was tested in a series of paraffin-embedded samples.

B1: monoclonal antibody 40F9 (clone 40F9.6) (antibody, mouse IgG1, V domains shown)
VH: QIQLVQSGPELKKPGETVKISCKASGYTFTNYGMNWVKQAPGKGLKWMGWINANTGEPTYAEEFKGRFAFSLETSDSTAYLQINNLKNEDTATYFCASDYDYWGQGTTLTVSS
VL: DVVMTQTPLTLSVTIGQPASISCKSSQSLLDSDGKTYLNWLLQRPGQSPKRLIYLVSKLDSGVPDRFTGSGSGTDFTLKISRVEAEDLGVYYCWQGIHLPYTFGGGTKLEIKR
notes: Mouse hybridoma antibody (Balb/c); also called supernatant from well F9 of plate 40
ratio of DO obtained in TLR3 ELISA to DO obtained in TLR4 ELISA [1]: 10 | binding result [2]: no binding (tested: 10 µg/ml)
